{
  "source": "paper PMC5436651",
  "about": "(PLoS ONE, 2017)",
  "proteins": {"B1": {"name": "RIP2K_(L294F) (RIP2 kinase domain 1-300 with the spontaneous mutation L294F), crystallised with AMPPCP (domain or fragment)", "chain": "GAMAMNGEAICSALPTIPYHKLADLRYLSRGASGTVSSARHADWRVQVAVKHLHIHTPLLDSERKDVLREAEILHKARFSYILPILGICNEPEFLGIVTEYMPNGSLNELLHRKTEYPDVAWPLRFRILHEIALGVNYLHNMTPPLLHHDLKTQNILLDNEFHVKIADFGLSKWRMMSLSQSRSSKSAPEGGTIIYMPPENYEPGQKSRASIKHDIYSYAVITWEVLSRKQPFEDVTNPLQIMYSVSQGHRPVINEESLPYDIPHRARMISLIESGWAQNPDERPSFLKCLIELEPVFRTFEEI", "notes": "The methods say the AMPPCP crystals came from RIP2K_(L294F); the results call this structure wild-type RIP2K; no density for the phosphorylation sites; also called RIPK_(L294F); RIP2K-AMPPCP; not shown: His-tag, N-terminal, cleaved"}, "B2": {"name": "RIP2K_(K47R) (RIP2 kinase domain 1-300, kinase-dead mutant K47R, not phosphorylated) (domain or fragment, UniProt O43353 1-300, looked up)", "chain": "MNGEAICSALPTIPYHKLADLRYLSRGASGTVSSARHADWRVQVAVRHLHIHTPLLDSERKDVLREAEILHKARFSYILPILGICNEPEFLGIVTEYMPNGSLNELLHRKTEYPDVAWPLRFRILHEIALGVNYLHNMTPPLLHHDLKTQNILLDNEFHVKIADFGLSKWRMMSLSQSRSSKSAPEGGTIIYMPPENYEPGQKSRASIKHDIYSYAVITWEVLSRKQPFEDVTNPLQIMYSVSQGHRPVINEESLPYDIPHRARMISLIESGWAQNPDERPSFLKCLIELEPVLRTFEEI", "notes": "Not phosphorylated by mass spectrometry; also called Rip2_(K47R)"}, "B3": {"name": "RIP2K_(D146N) (RIP2 kinase domain 1-300, kinase-dead mutant D146N, not phosphorylated) (domain or fragment, UniProt O43353 1-300, looked up)", "chain": "B2 chain with R47K, D146N", "notes": "Not phosphorylated by mass spectrometry; also called RIP2K_(D146N)-STAU; RIP2KD146N-STAU; source: mixed with 0.5 mM staurosporine during dialysis"}, "B4": {"name": "RIP2K (kinase domain of Receptor Interacting protein kinase 2, residues 1-300), wild type, phosphorylated (domain or fragment, UniProt O43353 1-300, looked up)", "chain": "B2 chain with R47K", "modifications": "auto-phosphorylated in vitro: phosphoserine at 174, 176, 178 and at 180 or 181 (a maximum of five phosphorylation sites)", "notes": "also called WT RIP2K; RIP2K_(1-300); source: de-phosphorylated with lambda phosphatase and re-phosphorylated before native MS and AUC"}},
  "key": {"[1]": {"biological_target": "the molecule itself", "experiment": "crystal structure; RIP2K_(L294F) 5 mg/ml with 2 mM AMPPCP and 5 mM MgCl2; sitting drop, 20°C; P4(1)2(1)2, a dimer in the asymmetric unit; 2.0 Å"}, "[2]": {"biological_target": "the molecule itself", "experiment": "AUC; sedimentation velocity at increased protein concentration (RIP2K at 10 and 18 μM; range tested 4 to 18 μM); 42,000 r.p.m., 4°C; 20 mM Tris pH 7.5, 50 mM NaCl, 5% glycerol, 250 μM TCEP; oligomers beyond the dimer"}, "[3]": {"biological_target": "the molecule itself", "experiment": "AUC; sedimentation velocity at low protein concentration (3-5 μM); 42,000 r.p.m., 4°C; 20 mM Tris pH 7.5, 50 mM NaCl, 5% glycerol, 250 μM TCEP; monomer to dimer"}, "[4]": {"biological_target": "the molecule itself", "experiment": "native MS; 3-5 μM protein in 250 mM ammonium acetate with 1 mM DTT, nano-ESI Q-TOF; RIP2K_(D146N) as the staurosporine sample"}},
  "note": "Numbering of substitutions follows the chain as printed. Names and notes keep the numbering of the source.",
  "data": [
    {"protein": "B1", "values": [
      {"measurement": "binding result", "setting": "[1]", "value": "binds"}
    ]},
    {"protein": "B2", "values": [
      {"measurement": "stoichiometry N", "setting": "[2]", "value": 4},
      {"measurement": "stoichiometry N", "setting": "[3]", "value": 2}
    ]},
    {"protein": "B3", "values": [
      {"measurement": "stoichiometry N", "setting": "[4]", "value": 2}
    ]},
    {"protein": "B4", "values": [
      {"measurement": "stoichiometry N", "setting": "[3]", "value": 2}
    ]}
  ]
}
